Measured values from patent US20220073608A1 (JIANGSU HUAIYU PHARMACEUTICAL, published 2022).
Where a chain is given by its changes, count along the chain named. In names and notes the source's numbering stands. Values belong to the binder of their own block, whether it stands above or below them.

Molecular target: T1, hSEMA4D ECD-His (His-tagged human SEMA4D protein extracellular domain, Met22-Arg734) (human, UniProt Q92854 22-734)
T1 construct: Expressed in CHO-S cells, purified on Ni column; also called protein immunogen; immunogen A; not shown: His tag of the pCP vector
T1 sequence: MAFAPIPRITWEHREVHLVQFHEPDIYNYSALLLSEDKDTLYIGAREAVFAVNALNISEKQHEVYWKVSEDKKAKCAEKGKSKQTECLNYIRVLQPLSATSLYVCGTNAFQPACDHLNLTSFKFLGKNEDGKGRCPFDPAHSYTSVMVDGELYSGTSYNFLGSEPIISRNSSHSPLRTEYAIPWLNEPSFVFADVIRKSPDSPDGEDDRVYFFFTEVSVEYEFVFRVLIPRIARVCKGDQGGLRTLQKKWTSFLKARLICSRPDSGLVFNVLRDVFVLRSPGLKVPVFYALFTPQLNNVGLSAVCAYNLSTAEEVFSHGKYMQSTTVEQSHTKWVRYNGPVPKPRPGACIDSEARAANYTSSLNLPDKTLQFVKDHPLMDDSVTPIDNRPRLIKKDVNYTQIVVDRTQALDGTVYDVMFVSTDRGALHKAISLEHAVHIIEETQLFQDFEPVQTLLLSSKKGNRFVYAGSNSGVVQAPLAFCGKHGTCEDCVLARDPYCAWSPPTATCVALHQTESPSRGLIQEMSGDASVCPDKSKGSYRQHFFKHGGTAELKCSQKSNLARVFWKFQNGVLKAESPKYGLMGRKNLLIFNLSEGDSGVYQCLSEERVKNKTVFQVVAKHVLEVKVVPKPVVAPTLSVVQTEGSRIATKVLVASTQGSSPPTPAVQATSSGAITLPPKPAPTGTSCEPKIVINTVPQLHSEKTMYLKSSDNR
Test: SPR (Biacore), antibody captured on anti-human Fc CM5 chip, hSEMA4D ECD-His 100 nM as analyte, 1:1 fit
Protocol: The anti-human Fc IgG (purchased from Geneway) was coupled and immobilized on the surface of the CM5 chip (purchased from GE) by the amino coupling method, and FC1 was used as the reference channel. The coupling and immobilization process was as follows: the freshly prepared mixture of 50 mM N-hydroxysuccinimide (NHS) and 200 mM 1-(3-dimethylaminopropyl)-3-ethylcarbodiimide hydrochloride (EDC) with a molar ratio of […] was used to activate the chip. Then 10-50 μg/mL anti-human Fc IgG diluted in 10 mM sodium acetate buffer (pH 5.0) was injected. The remaining activated sites were blocked with 1M ethanolamine. Then, buffer containing HBS-EP was used to dilute the 2D5-b1-3D9 antibody prepared to 5 ug/ml and the antibodies were captured on the chip at a flow rate of 10 ul/min to obtain a response value of about 100-300RU. Then, the purified hSEMA4D ECD-His was diluted to 100 nM and let flow across the chip surface at a flow rate of 30 μL/min. At the end of each cycle, the chip surface was regenerated with 10 mM Glycine at pH 1.5. The kinetic rate constant needed to be subtracted from the blank control, and the data was fitted with the global fit analysis method 1:1 combined with the model (see the Biacore operation manual for operation). The dissociation equilibrium rate constant (KD) was calculated according to the following formula: KD=kd/ka, wherein Kd is the dissociation constant and Ka is the binding constant.

Kd: 2.01 nM
koff: 0.00103 s⁻¹
kon: 511000 M⁻¹ s⁻¹
B1: 2D5-b1 (antibody, V domains shown)
VH: QVTLRESGPALVKPTQTLTLTCTFSGFSLTTTGVAVTWIRQPPGKALEWLALIDWDDDKYYSTSLKTRLTISKDTSKNQVVLTMTNMDPVDTATYYCARIASGDSGGYFADWGQGTLVTVSS
VL: SYELTQPPSVSVSPGQTASITCSGDKLDDKYVYWYQQKPGQSPVLVIYRDNKRPSGIPERFSGSNSGNTATLTISGTQAMDEADYYCQAWESSSDQYVFGTGTKVTVL
notes: Framework back-mutated variant of 2D5; the parent 2D5 was human IgG4 (S228P)/lambda; captured by anti-human Fc in the SPR assay

Kd: 0.184 nM
koff: 0.000107 s⁻¹
kon: 583000 M⁻¹ s⁻¹
B2: 2D5-b1-3D9 (antibody, human IgG4, V domains shown)
VH: B1 VH
VL: B1 VL with R49M, P54K
notes: also called 2D5-b1-3D9 antibody
